From paper PMC2553570
Like-named read-outs stand apart in the source and are kept apart here.

What was measured:
Test in all cases: EMSA
[1] = molecular target: T1, Ku70/80 wild-type (human, UniProt P12956;P13010 1-609;1-732)
[2] = molecular target: T2, Ku70DM/80DM (human, UniProt P12956;P13010 1-609;1-732, K357A;K358A;K238A;K239A)
[3] = molecular target: T3, Ku70DM/80TM (human, UniProt P12956;P13010 1-609;1-732, K357A;K358A;K233A;K238A;K239A)
[4] = molecular target: T4, Ku70/80TM (human, UniProt P12956;P13010 1-609;1-732, K238A;K239A;Ku80:K233A)
T4 sequence (P12956 whole entry, stated change not applied, chain 1 of 2): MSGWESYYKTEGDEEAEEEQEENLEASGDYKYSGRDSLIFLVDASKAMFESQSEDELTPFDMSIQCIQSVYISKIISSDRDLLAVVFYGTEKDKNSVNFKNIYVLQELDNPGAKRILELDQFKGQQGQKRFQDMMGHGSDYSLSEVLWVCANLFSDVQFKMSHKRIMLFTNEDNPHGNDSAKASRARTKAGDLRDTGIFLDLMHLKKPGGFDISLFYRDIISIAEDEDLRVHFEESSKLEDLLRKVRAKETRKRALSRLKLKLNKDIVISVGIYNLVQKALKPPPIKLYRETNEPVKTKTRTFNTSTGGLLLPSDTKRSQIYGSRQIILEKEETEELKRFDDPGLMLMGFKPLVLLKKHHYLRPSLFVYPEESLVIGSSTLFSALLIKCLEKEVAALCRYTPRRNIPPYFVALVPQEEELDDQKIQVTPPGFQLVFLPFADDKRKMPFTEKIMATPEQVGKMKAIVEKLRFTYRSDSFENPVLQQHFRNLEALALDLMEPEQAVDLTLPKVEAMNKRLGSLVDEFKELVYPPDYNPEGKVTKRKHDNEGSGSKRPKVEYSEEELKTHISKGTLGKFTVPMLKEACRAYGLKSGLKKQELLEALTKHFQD
T4 sequence (P13010 whole entry K238A/K239A, chain 2 of 2): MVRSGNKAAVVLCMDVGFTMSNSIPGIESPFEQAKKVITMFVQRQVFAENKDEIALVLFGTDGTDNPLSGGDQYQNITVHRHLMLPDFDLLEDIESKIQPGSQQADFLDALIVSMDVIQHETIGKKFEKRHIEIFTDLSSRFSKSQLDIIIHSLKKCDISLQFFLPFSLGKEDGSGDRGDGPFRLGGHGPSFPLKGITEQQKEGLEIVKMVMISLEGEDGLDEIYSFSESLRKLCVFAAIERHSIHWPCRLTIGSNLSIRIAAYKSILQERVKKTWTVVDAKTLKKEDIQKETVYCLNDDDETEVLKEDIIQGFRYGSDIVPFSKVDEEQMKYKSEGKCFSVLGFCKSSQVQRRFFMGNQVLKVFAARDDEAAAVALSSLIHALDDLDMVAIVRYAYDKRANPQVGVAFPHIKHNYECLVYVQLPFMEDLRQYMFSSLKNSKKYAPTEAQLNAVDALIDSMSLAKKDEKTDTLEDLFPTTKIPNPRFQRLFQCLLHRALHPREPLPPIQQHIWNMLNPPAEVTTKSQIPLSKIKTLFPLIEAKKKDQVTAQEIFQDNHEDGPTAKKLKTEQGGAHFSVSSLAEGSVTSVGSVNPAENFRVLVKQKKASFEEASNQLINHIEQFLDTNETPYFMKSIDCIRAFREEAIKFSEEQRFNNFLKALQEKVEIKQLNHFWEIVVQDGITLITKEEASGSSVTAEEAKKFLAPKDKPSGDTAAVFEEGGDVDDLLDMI

[5] = molecular target: Ku70/80DM (human, UniProt P12956;P13010 1-609;1-732, K239A;Ku80:K238A)
Sequence of Ku70/80DM (P12956 whole entry, stated change not applied, chain 1 of 2): as the sequence (P12956 whole entry, stated change not applied, chain 1 of 2) above
Sequence of Ku70/80DM (P13010 whole entry K239A, chain 2 of 2): as the sequence (P13010 whole entry K238A/K239A, chain 2 of 2) above, with A238K counted along it

[6] = molecular target: T5, Ku70DM/80 (human, UniProt P12956;P13010 1-609;1-732, K358A;Ku70:K357A)
T5 sequence (P12956 whole entry K358A, chain 1 of 2): as the sequence (P12956 whole entry, stated change not applied, chain 1 of 2) above, with K358A counted along it
T5 sequence (P13010 whole entry, stated change not applied, chain 2 of 2): as the sequence (P13010 whole entry K238A/K239A, chain 2 of 2) above, with A238K, A239K counted along it

[7] = molecular target: T2, Ku70DM/80DM; remark: listed apart in the source
[8] = molecular target: T3, Ku70DM/80TM; remark: listed apart in the source
[9] = molecular target: T4, Ku70/80TM; remark: listed apart in the source
[10] = molecular target: T5, Ku70DM/80; remark: listed apart in the source
[11] = molecular target: T1, Ku70/80 wild-type; remark: listed apart in the source

Measured: binding result

T1 sequence (P12956 whole entry, chain 1 of 2): as the sequence (P12956 whole entry, stated change not applied, chain 1 of 2) above
T1 sequence (P13010 whole entry, chain 2 of 2): as the sequence (P13010 whole entry K238A/K239A, chain 2 of 2) above, with A238K, A239K counted along it
T2 sequence (P12956 whole entry K357A/K358A, chain 1 of 2): as the sequence (P12956 whole entry, stated change not applied, chain 1 of 2) above, with K357A, K358A counted along it
T2 sequence (P13010 whole entry K238A/K239A, chain 2 of 2): as the sequence (P13010 whole entry K238A/K239A, chain 2 of 2) above
T3 sequence (P12956 whole entry K357A/K358A, chain 1 of 2): as the sequence (P12956 whole entry, stated change not applied, chain 1 of 2) above, with K357A, K358A counted along it
T3 sequence (P13010 whole entry K233A/K238A/K239A, chain 2 of 2): as the sequence (P13010 whole entry K238A/K239A, chain 2 of 2) above, with K233A counted along it

B1: 48-bp duplex (two-Ku) (dsDNA)
DNA 1: CTGAGAAAACTGTGCGTCTTCGCGGCAATTGAGAGGCATTCCATTCAC
DNA 2: GTGAATGGAATGCCTCTCAATTGCCGCGAAGACGCACAGTTTTCTCAG
binds: [1] | [2] | [3] | [4] | [5] | [6]

B2: one-Ku duplex with unpaired region (dsDNA)
DNA 1: GTTTTTAGTTTATTGGGCGCG
DNA 2: CGCGCCCAGCTTTCCCAGCTAATAAACTAAAAAC
binds: [7] | [8] | [9] | [10] | [11]
